Consider 2 molecules from US20250388666A1 (BRIGHAM AND WOMEN S HOSPITAL, published 2025).

For orientation: Kd means a measure of binding affinity in units of concentration.

Assay [1] addresses T1, CEACAM1 (Sino Biological) (human, UniProt P13688 35-428, limits assumed).
T1 construct: may be the same as CEACAM1-HIS; also called hCEACAM1; biotinylated soluble CEACAM1
T1 sequence: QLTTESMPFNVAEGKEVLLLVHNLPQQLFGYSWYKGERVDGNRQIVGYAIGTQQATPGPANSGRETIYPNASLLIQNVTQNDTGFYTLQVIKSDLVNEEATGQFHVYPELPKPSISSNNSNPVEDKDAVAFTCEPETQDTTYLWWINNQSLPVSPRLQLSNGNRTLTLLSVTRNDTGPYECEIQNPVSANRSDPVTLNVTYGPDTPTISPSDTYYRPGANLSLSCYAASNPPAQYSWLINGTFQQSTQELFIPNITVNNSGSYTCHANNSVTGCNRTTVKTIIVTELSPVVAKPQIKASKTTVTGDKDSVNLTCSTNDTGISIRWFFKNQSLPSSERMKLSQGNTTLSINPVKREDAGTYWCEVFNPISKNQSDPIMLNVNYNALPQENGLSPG
Description: SPR single-cycle. A digest of the protocol:
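Humanized affinity-matured IgGs from crude supernatants captured on Protein A to ~100 RU, with CEACAM1 analyte injected at 25–100 nM (three-point, two-fold) in HBS-P+ without regeneration. 200 s association per injection, 300 s single dissociation; reference-channel and blank subtracted.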

The target of assay [2] is T2, CEACAM3 (Sino Biological) (human, UniProt P40198 35-155, limits assumed).
T2 construct: also called hCEACAM3
T2 sequence (looked up): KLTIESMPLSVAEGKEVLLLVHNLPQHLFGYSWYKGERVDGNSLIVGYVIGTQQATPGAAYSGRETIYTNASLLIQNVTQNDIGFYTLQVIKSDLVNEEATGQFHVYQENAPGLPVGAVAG
Description: binding ELISA on plate-coated CEACAM (0.5 µg/mL); antibody at 1.67, 0.062 and 0.0069 µg/mL; signal as % of parent IgG on CEACAM1 at 1.67 µg/mL on the same plate. For orientation: In an ELISA, binding on a coated surface is turned into a signal by an enzyme label.

The target in assay [3] is T3, CEACAM6 on transfected HeLa cells (UniProt P40199 35-320, limits assumed).
T3 construct: whole, on cells; also called C6
T3 sequence (looked up): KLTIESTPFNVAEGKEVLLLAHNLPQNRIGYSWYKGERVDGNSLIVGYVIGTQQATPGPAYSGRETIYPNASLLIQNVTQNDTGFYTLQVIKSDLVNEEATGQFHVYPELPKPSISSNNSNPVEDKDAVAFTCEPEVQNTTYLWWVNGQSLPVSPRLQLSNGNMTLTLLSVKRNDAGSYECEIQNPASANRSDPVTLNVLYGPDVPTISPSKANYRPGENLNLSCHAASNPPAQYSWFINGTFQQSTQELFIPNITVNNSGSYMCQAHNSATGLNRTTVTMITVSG
Description: flow cytometry, transfected HeLa. A digest of the protocol:
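HeLa cells transfected separately with CEACAM1, CEACAM5 or CEACAM6 were stained with test antibodies, then fluorochrome-conjugated anti-isotype (human IgG4 or mouse IgG1) secondary plus DAPI viability dye. Binding read by flow cytometry.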
For orientation: A flow cytometer gives signals particle by particle.

Assay [4] addresses T4, CEACAM1-HIS (Sino Biologics Inc.) (Homo sapiens (Human), UniProt P13688 35-428).
T4 construct: bought; not shown: His tag
T4 sequence: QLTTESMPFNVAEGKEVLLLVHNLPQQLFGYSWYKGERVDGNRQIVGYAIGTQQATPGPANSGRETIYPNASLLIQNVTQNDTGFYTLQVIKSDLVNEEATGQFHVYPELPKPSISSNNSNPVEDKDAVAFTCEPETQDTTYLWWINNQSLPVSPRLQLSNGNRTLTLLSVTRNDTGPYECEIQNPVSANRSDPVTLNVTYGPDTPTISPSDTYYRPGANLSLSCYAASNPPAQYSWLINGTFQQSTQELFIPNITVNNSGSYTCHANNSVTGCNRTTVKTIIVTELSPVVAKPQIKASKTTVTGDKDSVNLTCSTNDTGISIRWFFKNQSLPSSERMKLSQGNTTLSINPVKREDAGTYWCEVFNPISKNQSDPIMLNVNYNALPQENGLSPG
Description: SPR single-cycle, IgG on Protein A. In outline:
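Single-cycle kinetics at 25° C in HBS-P+ (pH 7.4), antibodies from HEK EBNA supernatants at 1 μg/mL captured on Protein A (~100 RU). CEACAM1 injected at 3.125–50 nM (2-fold, 5 points), 150 s association, 150 s dissociation. Reference-channel and blank-run subtraction applied.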

“And” between values parts separate entries of the source, which are not always exact repeats. Identical values can stand only once.

B1: VH2 N56Q/Vκ4 S27(f)A IgG (antibody, V domains shown)
VH: EVQLLESGGGLVQPGGSLRLSCAASGFSFSDYYLYWVRQAPGKGLEWVATISVGGGQTSYADSVKGRFTISRDNSKNTLYLQMNSLRAEDTAMYYCTRGLYYGPAWFAYWGQGTLVTVSS
VL: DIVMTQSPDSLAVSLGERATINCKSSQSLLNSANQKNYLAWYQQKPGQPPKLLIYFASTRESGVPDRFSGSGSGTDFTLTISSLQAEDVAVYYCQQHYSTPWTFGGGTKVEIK
notes: IgG4 S241P, kappa; also called Parent; Parent IgG
Consider B1, for which, in assay [1], the Kd stood at 551 nM and the “fold better than Parent (KD)” value is 1 fold. Further, the binding result in assay [2] is reported as “no binding (tested: 1.67 µg/mL)”. Further, the relative fluorescence intensity in assay [3] turned out to be 1.31.

B2: chimeric parental antibody VH0/Vκ0 (antibody, IgG4, V domains shown)
VH: EVQLVESGGGFVKPGGSLKLSCAASGFSFSDYYLYWVRQTPEKRLEWVATISVGGGNTSYPDSVKGRFTISRDNAKNNLYLQMSSLKSEDTAMYYCTRGLYYGPAWFAYWGQGTLVTVSA
VL: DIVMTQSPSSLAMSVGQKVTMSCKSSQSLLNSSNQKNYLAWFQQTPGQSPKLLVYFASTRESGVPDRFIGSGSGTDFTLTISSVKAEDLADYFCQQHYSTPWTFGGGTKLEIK
notes: IgG4 (S241P), kappa; also called Chimera; chimeric antibody
As to B2, in assay [4], the dissociation constant Kd is 47.6 nM and 43.2 nM.
